The domain aggregation screens of Martell et al. (2025)

test: soluble fraction after stress (log2 fold change); higher = more stays soluble; pooled small domains, quantitative proteomics; settings: stress: pH 4
Outline: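 Following acid stress at pH 4, the amount of each small protein domain still soluble was measured in pooled custom libraries by high-throughput quantitative proteomics. Its fold change, on a log2 scale, is higher when more of the domain stayed soluble. This fold change is taken as a measure of aggregation propensity.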

Row | Sequence | soluble fraction (log2)
1 | HMKNAMTDIYLEEIKKILTKNEFLVYTLRELNNFSVQFITDNYDLSEKTIYNSVYRAKKKIDRHFT | -0.696
2 | HMTRNGTVTFFNHDKGYGFIKDVLTQESVFVHINSLSEPINEQNKVSFEIEMGPRGSNAINVKLI | -1.86
3 | HMIDDPTAVILRLVSEKQVIRRDDVVKALSVTPQKAYRLLKTMTTGGLLTRSGARRTTVYGLPDARER | 0.22
4 | HMVQVHEWTNKAGRTIKAKFVRGDAQSVTIFLGGRNFVLKIADLSEESQALARKLSAPPPPP | 0.0306
5 | HMEELELTIDGEMVGRIDKQLGHHFDQFSRSQIQHWIEDGHVLVNGKQVKPKYKLLVGDHVQIIPEEPQK | 0.223
6 | HMAAQDIILKRNAEQIEAIVKEITDTDVKYRKFTNTEGVTYSIRRSEVFSITYENGTMDLFA | 0.206
7 | HMYMLYQQLADSLRDKIYEGTYTFGDKIPSERTLAATFGISHLTVRKALAILEEEGLLDRRQGNGTFVRV | -0.693
8 | HMAKPAALLFEHRFDGMAEMRFRENIVKNDDGSYTYDEYFLSMLDRAGLEKIVQENMEVWIAYAKQ | -1.42
9 | HMKDNPNETFERIAGKITRTLRSGPVRIQQLDLLFSESAGKVVDVLRAMAENGEVLIKDDTIQLNGNN | -0.261
10 | HMAFIEADIGKRIKSLRNKKRITLESLAAETGFTKGYLSKVETSEKAPPVSTLGSIARALGVSISTLLGE | 0.144
11 | HMVAISNTSGLAGVAYWIQSNIPKGIDIRKDNPGIVTIKNWIDEEYRKGRTTTISEEEMFKLVREYMPEL | -1.12
12 | HMEMLQRFIFLENVSSTQVESAIKELHPNLNLKRVKLSFPGADTVLLKGPKQDLELAEELIRHLDRSE | -0.609
13 | HMAHLSPNDAARLVGVSRPLLNQILDEGRITFFETAGGHRKIKLAAVLAYIKERDEVAAQLAAART | -0.514
14 | HMDLPREKRIEIGLTYIYGIGLKTSQKILAATGIDPNTRVKDLDETTVSKLREYIDHNYRVEGELRS | -0.217
15 | HMLSSREEKILNYLNEHQIITRKKAQELLETSQSTAGRVLKIMVDNGLIVQYGGSRSIWYELIK | -0.269
16 | HMPLDPFVVDALRDEIINTIKQHEPRVDLQKVQVQPIYTQNRVNISVQYKIVGLPIVEDITFVLQRP | 0.135
17 | HMDIAATTVKQKIRTLLADEDAARPLSDQKIADALAEDGIDVARRTVAKYREELGIEPSWARKR | 0.0608
18 | HMKHFTYEEMELMSIYDPGTREGLIANLEEMRGYLEPDETELRELTDSALEKLRELSDADYEQLELI | -1.48
19 | HMRNLYEILGVSKDAPQGEIKSAYRKLAKTYHPDLNPNNEKAAELFKEINQAYEVLSDETKRRHYDQFGEA | ≥ 0.43

Row | Sequence | soluble fraction (log2)
20 | HMIKLTVRQQEILDLIARSIDQTGFPPTRAEIAAELGFKSVNAAEEHLQALARKGVIEMVPGISRGIRLVQ | -0.306
21 | HMADMKIHLRPYAHDTNRWHVDIRLMHPTAATEIRKRLVAPAGLSEAQARAWGERQVPTILGKALGVI | -0.042
22 | HMDGEMRRKRILQLLSEQTKPLSGTALAKQFGVSRQVIVQDIALLKSKEPAIISTYRGYVLGR | 0.142
23 | HMREEIESVYKTLAVTEIPYIARGNSARLGSGIQTVYDFYRMEGMQVSKILGRNGSVLWLELHG | -0.159
24 | HMTTIAQNISNYRTRANMTQQQVADKLSVSHHTVSKWELGINTPSVEDMQKLAQVFGVTITELVVD | -0.662
25 | HMSTNDIFISGDKLVLKNTTGQMDVFDMAGRKVLSSTNNVSEMNVSSLPKGVYVVSASIGGSKMKAKVYK | 0.0276
26 | HMHTDQVLVMTRAVGQGEIVRNTDVGLTSVAVDRAVTTIPASQLDEIVGRHALVDLSAGQLLGSHSVGA | -0.0551
27 | HMLPYGDRRRHTDNTISRIRELAAALDDSGIADRLNQDGYVTPEGKPFTYAGVRWIRYKYDISGPYERN | -0.364
28 | HMLGVLEYYNNGQKKSERTFKGGMQIYTEWYENGQMKAEERKWIDQLGSLKFLNLLSTEWDENGNEISRME | -1.28
29 | HMENNIRLSVPDTESGQRIDSYLAEQIPGLTRSAVQNLLAEQAVTIAGKAVKKNYKLLGGEDILVQLPEVR | ≥ 0.43
30 | HMSDFSSNLRRLRKRAGLSQDALAEKLSVARQTVSSWERGNSYPDLDMLVRISDALATDPNELLYPN | 0.0655
31 | HMGDRRSVFEQSVLDAIKSLVKQGELATTKAISDHIGTNYQGNVSRAITALLADNKIKKLPKEGVLQPYEA | -0.00881
32 | HMADGEWAEMQRQLTAAGLLVVGRAAQERIQRLSDISPLIEAAQRSNVVMLSERTVDEVLTLVPT | -0.468
33 | HMLDTPLTARELDVLYLMRQRMSAKEIAKQLGIATMTVNRHAANLYRKLGVNTRWDAVYRAEEVGILPP | -0.592
34 | HMSVYIGVDQAKSIAAEHAGLSNSAVTFSKAKLENDDGMTVYEVEFFYQGTEYDYKIDASTGSILEYDLDR | -0.0157
35 | HMTELSLSEQAYQQLRRMIVRLDFAPGDVLREEALQEALGMSRTPIREALQRLAREHFVTVIPRRGMFVS | -1.22
36 | HMTVKVPDLRGKTLAEMQRILDDAGLKYEINDSTFSRTAIPGTVREVIPAPGSEVKLGRILFIAINGF | 0.00881
37 | HMRLPAISYSFARKHGVVLRLDGDRPVASLREGADPAILIEVKRHLDGAMGVEKVSEAAFDQLLSTTYA | -0.436
38 | HMVDDTGLPTVLISDGRLLERNLHRLHLDHTWLQRRLEENNIPSIQSLFLLTVDKQHQLYFLKK | -0.277
